The record followed here is publication PMC9287376.

Common to all, as to details: natural protein; chains chain; remark: other sources report otherwise
Assay [1] has as its target T1, wild-type trigger factor, P0A850.
T1 chain: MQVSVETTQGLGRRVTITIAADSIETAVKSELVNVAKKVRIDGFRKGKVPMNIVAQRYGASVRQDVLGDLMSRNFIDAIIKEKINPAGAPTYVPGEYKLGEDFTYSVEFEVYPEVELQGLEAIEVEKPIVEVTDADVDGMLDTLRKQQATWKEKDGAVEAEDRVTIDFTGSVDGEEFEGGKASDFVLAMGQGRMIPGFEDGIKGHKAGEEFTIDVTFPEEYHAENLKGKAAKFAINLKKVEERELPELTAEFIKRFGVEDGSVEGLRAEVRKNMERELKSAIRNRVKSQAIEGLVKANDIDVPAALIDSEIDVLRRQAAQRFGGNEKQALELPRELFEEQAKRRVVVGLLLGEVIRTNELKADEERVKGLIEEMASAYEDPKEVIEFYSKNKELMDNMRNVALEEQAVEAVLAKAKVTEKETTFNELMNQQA
Put plainly: 0.06 M GdnHCl.

Assay [2] shares this target. Nature of the assay: 0.26 M GdnHCl.
For assay [3] the target is unchanged. Nature of the assay: native buffer, no denaturant.

B1: wild-type trigger factor, P0A850 1-432 (protein)
chain: MQVSVETTQGLGRRVTITIAADSIETAVKSELVNVAKKVRIDGFRKGKVPMNIVAQRYGASVRQDVLGDLMSRNFIDAIIKEKINPAGAPTYVPGEYKLGEDFTYSVEFEVYPEVELQGLEAIEVEKPIVEVTDADVDGMLDTLRKQQATWKEKDGAVEAEDRVTIDFTGSVDGEEFEGGKASDFVLAMGQGRMIPGFEDGIKGHKAGEEFTIDVTFPEEYHAENLKGKAAKFAINLKKVEERELPELTAEFIKRFGVEDGSVEGLRAEVRKNMERELKSAIRNRVKSQAIEGLVKANDIDVPAALIDSEIDVLRRQAAQRFGGNEKQALELPRELFEEQAKRRVVVGLLLGEVIRTNELKADEERVKGLIEEMASAYEDPKEVIEFYSKNKELMDNMRNVALEEQAVEAVLAKAKVTEKETTFNELMNQQA
Regarding B1, the Kd in assay [1] was determined as 29 µM; in assay [2], 76 µM; in assay [3], 18.4 µM.
